From the nanobody polyreactivity screen of Harvey et al. (2022)

Test: yeast display, Sf9 membrane polyspecificity reagent, FACS + sequencing; frameworks hold sequencing errors
Method in brief: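 Polyreactivity labels are assigned by the sorting gate from which each nanobody was recovered. The gates were low and high (top ~1%), set on anti-HA fluorescence for expression and streptavidin fluorescence for reagent binding. Before sorting, galactose-induced (36–48 hours) yeast display cells were stained for 1 hour at 4 °C with 10% biotinylated, detergent-solubilized Sf9 membrane reagent.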

Row | Sequence | polyreactivity (PSR sort gate)
1 | QVQLVESGGGLVQAGGSLRLSCAASGSTFWGNAMGWYRQAPGKERELVAAISWIGGGTYYADSVKGRFTISRDNAKNTVYLQMNSLKPEDTAVYYCAAKIFIRVHYYSYRMYYWGQGTQVTVSS | low polyreactivity
2 | QLQLVESGRGLVQAGGTLRLSCAASGRIFGKNAIGSYRQAPGKEMELVAAITGSGGRTYNADSVKGRFTISRDNAKNTVYLQMNSMKPEDTAVYYCAVRVTSYYRTMDYWGQGTQGTVSS | low polyreactivity
3 | QVQLVESGGGLVQAGGSLRLSCAASGFIFIFYAMGWYRQAPGKERELVAGISWSSSSTYYADSVKGRFTISRDNAKNTVYLLMNSLKPEDTAVYYFNAKHLPRHRDYWGQGTQVTVSS | low polyreactivity
4 | QVQLVESGGGLVQAGGSLRLSCAASGRTFYYYAMGWNRQAPGKEREFVASITWRGGRTYYADSVKGRFTISRDYAKNTVYLQMNSLKPEDTAVYYCAADGSYAIGGYGYWGQGTQVTVSS | high polyreactivity
5 | QVQLVESGGGLDQAEGSLRLSCAASGSKINHYARGWYRQAPRKERELVAAITKSGGSTYADSVKGRFTISRDNAKNTVYLKMNSRKPEDTAVYYCAAGRRIYGTKGRGDYWGQGTQVTVSS | low polyreactivity
6 | QVQLVESGGGLVQAGGSLRLSCAASGRTFRYYAMGWYRQAPGKERELVAAINRGGSTYYADSVKGRFTISRDNAKNTVYLQMNSLKPEDTAVYYCNVDKYRIVGFHSPYDYWGQGTQVTVSS | high polyreactivity
7 | QVQLVESGGGLVQAGGSLRLSCAASGRIFYGYVMGWYRQAPGKETELVAAMTWSGSRTYYADSVKGRFTISRDNAKNTVYLQMNSLKPEDTAVYYCAARIPSDGYSYWGQVTQVTVSS | high polyreactivity
8 | QVQLVESGGGLVQAGGSLRLSCAASGSIFGWYAMGWYRQAPGKERELVATISSGGGNTYYADSVKGRFTISRDNAKNTVYLQMNSLKPEDTAVYYCAADRTFYGIRFDYWGQGTQVTVSS | low polyreactivity
9 | QVQLVESRGGLVQAGGSLRLSCAASGRTFWYYAMGWYRQAPGKELELVATITGSGGTTYYADSVKGRFTISRDNAKNTVYLQMNSLKPEDTAVYYCAKEQHWYIYGPAEVDYWGQGTQVTVSS | high polyreactivity
10 | QVQLVESGGCLVQAGGSLRLSCAASGRTFRYYAMGWYRQAPGKERELVAAITGGGGSTYYADSVKGRFTISRDNAKNTVYLQMNSLKPEDTAVYYCNKLRYKQWGAQYPMDYWGQGTQVTVSS | high polyreactivity
11 | QVQLVESGGGLVQAGGSLRLSCAASGNAMGWYRQAPGKERELVASINRSGGSTYYADSVKGRFTISRDNAKNTVYLQMNSLIPEDTAVYSCNTDVGATVEDDYWGQGTQVTVSS | low polyreactivity
12 | QVQLVESGGGLVQAGGSLRLSCAASGFTLRYYAMGWYRQAPGKERELVAAITSGGGSTYYADSVKGRFTISRDNAKNTVYLQMNSLKPEDTAVYYCNAQYGSLYYAVVLSNIYNYWGQGTQVTVSS | high polyreactivity
13 | QVQLVESGGGLVQAGGSLRLSCAASGIIYVYAMGWYRQAPGKERELVAAITWSGGSTYYADSVKGRFTISRDNAKNTVYLQMNTLKPEDTAVYYCARGQGGEYDLDYDYWGQGTQVTVSS | low polyreactivity
14 | QVQLVESGGGLVQAGGSLRLSCAASGIILSENAKGWYRQAPGKERELVAAITSSGSTNYADSVKGRLTISRDNAKNTVYLQMNSLKPVDTAVYYCATQNLYVSWYYAWYGYGYWGQGTQVNVSS | low polyreactivity
15 | QVQLVESGGCLVQAGGSLRLSCAASGSTFLGNAMGWYRQAPGKERELVAGITSGGTTNYADSVKGRFTISRDNAKNTVYLQMNSLKPEDTAVYYCNADVWIGQLFDPGYDFDYWGQGTQVTVSS | low polyreactivity
16 | QVQLVESGGGLVQAGGSLRLSCAASGIIIDYYTMGWYRQAPGQERELVAAINKSGGSTYADSVKGRFTISRDNAKNTVYLQMNSLKPEDTAVYYCAAEVDYSYWPEYARKYYYWGQGTQVTVSS | low polyreactivity

Row | Sequence | polyreactivity (PSR sort gate)
17 | QDQLVESGGGLVQAGGSLRLSCAASGFIFDQYAMGWYRQPPGKERELVAAITSGGDTNYADSVKGRFTISRDNAKNTVYLQMNSLKPEDTAVYYCNAAARGSSFDYWGQGTQVTVSS | low polyreactivity
18 | QVQLVESGGGLVQAGGSLRLSCAASGSTFRLYAMGWYRQAAGKERELVAAISYSGGSTYYADSVKGRFTISRDTAKNTVYLQMNSLKPEETAVYYCNAVRRHGGYYDYGYWGQGTQVTVSS | high polyreactivity
19 | QVQLVESGGGLVQAGGSLRLSCAASGIIFFKYAMGWYRQAPGKERELVARISWSGSTYADSVKGRFTISRDNAKNTVYLQMNSLKPEDTAVYYCAADSFTITADSDDYWGQGTQVTVSS | low polyreactivity
20 | QVQLVESGGGLVQAGGSLRLSCAASGRTFKKYTMGWYRQAPGKERELVAVITSGGSTYYADSVKGRFTISRDNAKNTVYLQMNSLKPEDTAVYYCATKASYKGDYWGQGTQVTVSS | high polyreactivity
21 | QVQLVESGGGLVQAGGSLRLSCAASGRTFDDNAMGWYRQAPGKEREFVADIDWSGGDTYYADSVKGRLTISRDNAKNTVYLQMNSLKPEDTAVYYCAARPIISVGRSRYDYWGQGTQVTVSS | high polyreactivity
22 | QVHLVESGGGLVQAGGSLRLSCAASGRIFATNAMGWYRPAPGKERELVATITRSAGRTYYADSVKGRFTISRDNAKNTVYLQMNSLKPEDTAVYYCAASYWDTEPGYREYDYWGQGTQVTVSS | low polyreactivity
23 | QVQLVESGGGLVQAGGSLRLSCAASGSIFGPYAMGWYRQAPGKERELVAAISTRGGRTYYADSVKGRFTISRDNAKNTVYLQMNSLKPEDTAVYYCNARRSDSRSYDYWGQGTQVTVSS | high polyreactivity
24 | QVQLVESGGGLVQAGGSLRLSCAASGFIFKDYAMRWYRHSPGKERELVAAITSGVSTNYADSVKGRFTISRDNAKNTVYLQMNSLKPEDTAVSYCNAKARLAGWWLFRLEYWGQGTQVTVSS | low polyreactivity
25 | QDQLVESGGCLVQAGGSLRLSCADSGSNFWYYAMVWYRQAPGKERELVAAITSAGSTYYADSVKGRFTISRDNAKITVYLQINSLKPEDTAVYYCAKVKAWSEYYYWGQGTQVTVSS | low polyreactivity
26 | QVQLVESGGGLVQAGGSLRLSCAASGSIFFQNGMGWYRQAPGKERELVAAISSSGDSTYYADSVKGRFTISRDYAKNTVYLQMNSLKPEDTAVYYCAAEPEYVSGPYDYWGQGTQVTVSS | low polyreactivity
27 | QVQLVESGGGLVQAGGSLRLSCAASGSTSQINAMGWYRQAPGKERELVAAITWSGDSTYYADSVKGRFTISRDNAKNTVYLQMNSLKPEDTAVYYCAAVSRYFSTYLYDYWGQGTQVTVSS | low polyreactivity
28 | QVQLVESGGGVVQARGSLRLSCAASGRIFYGYAMGWYRQAPGKERELVAAITRSSSTYYADSVKGRFTISRDNAKNTVYLQMNSLKPEDTAVYYCAAASRRSGASSWYDYWGQGTQVTVSS | high polyreactivity
29 | QVQLVDSGGGLVQAGGSLRLICAASGRTIWYYAMGWYRQAPGKERELLASITRSGGSTYADSVKGRFTISRDNAKNSVYLQMYSLKPEDTAVDYCAATRPRIPVYQNNYGYWGQGTQVTVSS | high polyreactivity
30 | QVQHVESGGGLVQAGGSLRLSCAASGIIITGNAMGWYRQAPGKERELVAAISTSGGRTYYADSVKGRFTISRDNAKNTVYLQMNSLKPEDTAVYYCAADDLSGTELYYWGQGTQVTVSS | high polyreactivity
31 | QVQLVESGGGLVQAGGSLRLSCAASGSIFVLNAMGWYRQAPGKERELVAVISNIGGRTYYADSVKGRFTISRDNAKNTVYLQMNSLKPEDTAVYYCIFRSPSYEYDYWGQGTQVTVSS | low polyreactivity
32 | QVQLVESGGGLVQAGGSLRLSCAASGIIFRVYTMGWYRQAPGKERELVATIRTSGDSTYYADSVKGRFTISRDNAKNTVYLQMNSLKPEDTAVYYCAKRRNYWHYYWGQGTQVTVSS | high polyreactivity
